Reference: patent CN113214393A

Target: IL-6R (UniProt P08887)
Assay: chemiluminescent immunoassay; ABEI-labelled human IL-6 on IL-6R-coated magnetic beads, diluent only (no antibody); same control value printed in all four columns

Sequence of UniProt P08887 (P08887 20-358 limits assumed): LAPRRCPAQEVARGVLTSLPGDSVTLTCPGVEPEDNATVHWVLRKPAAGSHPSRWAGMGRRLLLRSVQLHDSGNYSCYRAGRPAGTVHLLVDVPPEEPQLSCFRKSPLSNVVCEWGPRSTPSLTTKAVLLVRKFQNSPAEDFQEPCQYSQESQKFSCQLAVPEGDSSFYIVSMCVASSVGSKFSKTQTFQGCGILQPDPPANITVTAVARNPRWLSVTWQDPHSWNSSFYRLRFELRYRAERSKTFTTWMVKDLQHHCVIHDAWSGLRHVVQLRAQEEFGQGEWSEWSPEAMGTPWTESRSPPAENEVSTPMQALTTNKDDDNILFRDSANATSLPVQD

RLU (相对光强度): 606000 RLU
Substance: 人IL-6抗原 (from UniProt P05231 30-212) (ligand)
